Biological target: T1, ARG2 (Homo sapiens, UniProt P78540)
T1 sequence (P78540 23-354): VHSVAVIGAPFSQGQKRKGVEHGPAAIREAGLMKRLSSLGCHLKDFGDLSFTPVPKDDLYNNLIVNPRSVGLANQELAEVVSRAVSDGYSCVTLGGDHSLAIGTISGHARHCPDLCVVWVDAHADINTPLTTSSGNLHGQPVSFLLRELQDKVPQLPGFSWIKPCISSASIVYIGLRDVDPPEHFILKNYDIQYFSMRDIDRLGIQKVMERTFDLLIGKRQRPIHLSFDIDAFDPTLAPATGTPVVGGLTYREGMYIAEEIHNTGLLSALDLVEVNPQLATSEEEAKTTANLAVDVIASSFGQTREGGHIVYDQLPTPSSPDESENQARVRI
Assay: T cell proliferation assay (BrdU, 96 hours) with exogenous ARG2, improved variant IgGs
Format: cell-based
Design: human ARG2 (aa23-354); His10 (C); made in house; host or cells: E. coli BL21 (DE3)
Conditions: In Presence of rhARG2; hIgG1; top conc 2 μM; n=2
Procedure: This assay served to provide evidence of improved functional efficacy for each affinity-matured antibody in comparison to the parent IgG, C0020187 (FIG. 12).
Lead optimisation clones were tested to an endpoint treatment time of 96 hours and the BrdU Cell Proliferation Kit (Roche, France; Cat: 11647229001) was used according to the manufacturer's instructions. R347 was used as the irrelevant control. All clones tested n=2.
Leukocyte cones underwent Ficoll Plaque (GE, Sweden; Cat: 17-1440-02) gradient separation, PBMC's were extracted and pan T cell population isolated by negative selection using the Human T Cell Enrichment Kit (Stemcell Technologies, France; Cat: 19051) according to the manufacturer's instructions.
40000 cells/well were seeded in complete growth media (RMPI 1640, 5% Human Serum Albumin) into a 96 well clear TC treated microplate (Greiner-Bio One, Germany; Cat: 655180). T cells were activated by the addition of ImmunoCult CD3/CD28 (Stemcell Technologies, France; Cat: 10971) at a dilution of 1:40 directly into wells and the plate incubated 37° C., 5% CO2 for 45 minutes. […]
Calculated data was expressed as % of control (Equation 3) and graphical plots were constructed using a four parameter fit and EC50's determined using model 205 in XLFit (IDBS, UK). […]

EC50: 157 nM
Maximum % Proliferation: 90%
B1: C0021158: anti-ARG2 antibody, second generation lead, VH SEQ ID NO: 272, VL SEQ ID NO: 277 (antibody, listed as Homo sapiens, V domains shown)
VH: EVQLLESGGGLVQPGGSLRLSCAASGFTFRYEVAAWVRQAPGKGLEWVSAISGPIPKGYYADSVKGRFTISRDNSKNTLYLQMNSLRAEDTAVYYCARLRADLGLYMDLWGRGTLVTVPS
VL: QSVLTQPPSVSAAPGQKVTISCSGSSSNIGNHYVSWYQQLPGTAPKLLIYDNSERTAGVPDRFSGSKSGTSATLGITGLQTGDEADYYCGTWDELTSNLVFGGGTKLTVL
modifications: C0021158
